Laboratory results reported in the nanobody polyreactivity screen of Harvey et al. (2022).

assay: yeast display, Sf9 membrane polyspecificity reagent, FACS + sequencing; frameworks hold sequencing errors
Procedure, shortened: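 Sorting gates, low and high (top ~1%), were placed on anti-HA fluorescence to track expression and on streptavidin fluorescence to track reagent binding. A clone's polyreactivity label is taken from the gate it came out of. The reagent was 10% biotinylated, detergent-solubilized Sf9 membrane, applied for 1 hour at 4 °C to galactose-induced yeast display cells.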

| Sequence | polyreactivity (PSR sort gate) |
| --- | --- |
| QVQLVESGGGLVQAGGSLRLSCAASGSTFTRYAMGWYRPAPGKERELVAAISLSGGDTYYADSVKGRFTISRDNAKNTVYLQMNSLKPEDTAVYYCAARWGYRGYSYEYWGQGTQVTVSS | high polyreactivity |
| QVQLVESGGGLVQAGGSLRLSCAASGSTFTRYAMGWYRQAPGKERELVAAISRGGSTNYADSVKGRFTISRDNAKNTVYLQMNSLKPEDTAVYYCAKGSNRSRGYYWGQGTQVTVSS | high polyreactivity |
| QVQLVESGGGLVQAGGSLRLSCAASGSTFTRYAMGWYRQAPGKERELVAAISSSAGRTYYADSVKGRFTISRDNAKNTVYLQMNSLKPEDTAVYYCAATRVYAGAQYDYWGQGTQVTVSS | high polyreactivity |
| QVQLVESGGGLVQAGGSLRLSCAASGSTFTRYAMGWYRQAPGKERELVAGITGRGGSTYYADSVKGRFTISRDNAKNTVYLQMNSLKPEDTAVYYCNKRRRGVTTYDYWGQGTQVTVSS | high polyreactivity |
| QVQLVESGGGLVQAGGSLRLSCAASGSTFTRYAMGWYRQAPGKERELVASISRSGNTYYADSVKGRFTISRDNAKNTVYLQMNSLKPEDTAVNYCAAKRKSYYSYNFDYWGQGTQVTVSS | high polyreactivity |
| QVQLVESGGGLVQAGGSLRLSCAASGSTFTSYAMGWYRQAPGKEREFVAAISQSSGSTYYADSVKWSFTISRDNAKNTVYLQMNSLKPEDTAVYYCAAKGRIRYGYGFDYWGQGTQVTVSS | high polyreactivity |
| QVQLVESGGGLVQAGGSLRLSCAASGSTFTSYAMGWYRQAPGKERELVAAISKSGGSTNYADSVKGRFTISRDNAKNTVYLQMNSLKPEDTAVYYCAALGIGSYRRYSGYDYWGQGTQVTVSS | low polyreactivity |
| QVQLVESGGGLVQAGGSLRLSCAASGSTFTSYAMGWYRQAPGKERELVAAISKSGGSTYYADSVKGRFTISRDNAKNTVYLQMNSLKPEDTAVYYCAKYIAYYGYVPSPWDHPGDDYWGQGTQVTVSS | low polyreactivity |
| QVQLVESGGGLVQAGGSLRLSCAASGSTFTSYAMGWYRQAPGKERELVAAISRSGGRTYYADSVKGRFTISRDNAKYTVYLQMNSLKPEDTAVYYCNAASLSKSDYWGQGTQVTVSS | high polyreactivity |
| QVQLVESGGGLVQAGGSLRLSCAASGSTFTTNAMGWYRQAPGKERELVATISRGGSTYYADSVKGRFTISRDNAKNTVYIQMNRLKPEDTAVYYCATDVQVPGIGRSVYAYEYWGQVTQVTVSS | low polyreactivity |
| QVQLVESGGGLVQAGGSLRLSCAASGSTFTTYVMGWYRQAPGKERELVAAISRRGGRTYYADSVKGRFTISRDNAKNTVYLQMNSLKPEDTAVYYCNKVYPTYYYYRGGPTEYDYWGQGTQVTVSS | high polyreactivity |
| QVQLVESGGGLVQAGGSLRLSCAASGSTFTVNAMGWYRQAPGKERELVAAINWSGGSTYYADSVKGRFTISRDNAKNTVYLQMNSLKPEDTAVYYCNKDREPYGYWSFDYWGQGTQVTVSS | low polyreactivity |
| QVQLVESGGGLVQAGGSLRLSCAASGSTFTVNDMGWYRQAPGKERELVAAITQRDGRTFYADSVKGRFTISRDNAKNTVYLQINSLKPEDTGVYYCAADYGWYTYGDYDYWGQGTQVTVSS | low polyreactivity |
| QVQLVESGGGLVQAGGSLRLSCAASGSTFTVNGMGWYRQAPGKERELVASITWSGGSTYYADSVKGRFTISRDNAKISVYLHMTSLIPEDTAVYYCAADEKLYITGYDYWGQGTQVTVSS | low polyreactivity |
| QVQLVESGGGLVQAGGSLRLSCAASGSTFTVYAMGWYRQAPGKERELVAAITNGGRTYYADSVKGRFTISRDNAKNTVYLQMNSLKPEDTAVYYCAADVYYDDYLYDYWGQGTQVTVSS | high polyreactivity |
| QVQLVESGGGLVQAGGSLRLSCAASGSTFTVYDMGWYRQAPGKERELVAGISRRGSSTYYADSVKGRFTISRDNAKNTVYLQMNSLKPEDTAVYYCAARGAVIRYPDKRYPVRYDYWGQGTQVTVSS | high polyreactivity |
